In patent publication US8143228B2, “Agents capable of downregulating an MSF-A dependent HIF-1α and use thereof in cancer treatment” (Medical Research Fund of Tel Aviv Sourasky Medical Center, priority 2004, dated 2012):

Tests used:
Type in all cases: cell-based
[1] = system: HIF-1α transcriptional activity; assay: HRE-dependent luciferase reporter gene assay in HEK 293 cells; settings: transient transfection, hypoxia, compared with empty vector
Method: FIG. 7 is a graph depicting luciferase activity (a reporter of HIF-1α transcriptional activation) as a function of the presence or absence of the N-terminus of the MSF-A protein. HEK 293 cells were co-transfected with 0.1 μg HRE-dependent luciferase reporter [pBI-GL V6L (Post, D. E., and Van Meir, E. G. 2001. Generation of bidirectional hypoxia/HIF-responsive expression vectors to target gene expression to hypoxic cells. Gene Ther 8, 1801-1807. Mabjeesh, N. J., et al., 2002, Geldanamycin induces degradation of hypoxia-inducible factor 1 alpha protein via the proteasome pathway in prostate cancer cells. Cancer Res 62, 2478-2482) and the wild type (WT) MSF-A (p3xFlag-MSF-A), ΔN-MSF-A (ΔN) (p3xFlag-ΔN-MSF-A) or empty vector (EV) (p3xFlag-cmv-25) constructs as follows: Experiment (Exp.) No. 1=1 μg EV; Exp. No. 2=0.5 μg EV and 0.5 μg WT; Exp. No. 3-1 μg WT; Exp. No. 4=0.5 μg EV and 0.5 μg ΔN; Exp. No. 5=1 μg ΔN. After 24 hours of transfection, cells were subjected to normoxia or hypoxia for overnight and then analyzed for luciferase luminescence assay. Luciferase activity is presented as relative units per μg protein in each experiment. Columns represent means; bars represent SD; n=3; *, p<0.05 compared to hypoxia of EV. Note the significant decrease of luciferase activity in cells grown under hypoxia and transfected with the N-terminus truncated form (ΔN) of MSF-A as compared with cells transfected with the wild-type form of MSF-A. Also note that under normoxia, when the luciferase activity is hardly detected, no significant difference is obtained.
FIG. 8 is a graph depicting luciferase activity (a reporter of HIF-1α transcriptional activation) as a function of the presence or absence of the GTP binding site of MSF-A (ΔG). HEK 293 cells were cotransfected with HRE-dependent luciferase reporter and the expression vector encoding wild-type MSF-A (WT) (p3xFlag-MSF-A), the deleted GTP binding site form of MSF-A (ΔG) (p3xFlag-ΔG-MSF-A) or empty vector (EV) (p3xFlag-cmv-25) and then were exposed to hypoxia conditions as described in the description of FIG. 4, hereinabove. Luciferase activity is presented as relative units per μg protein in each experiment. Columns represent means; bars represent SD; n=3. Note the non-significant effect of the ΔG-MSF-A on HIF-1α activity.
Reporter gene assay and luminescence measurements—HRE-dependent luciferase activity was performed using the pBI-GL construct (pBI-GL V6L) containing six tandem copies of the VEGF hypoxia response element as previously described (Mabjeesh et al., 2002; Post and Van Meir, 2001). […] Luciferase enzymatic activity was measured using the commercial kit TROPIX (Bedford, Mass.) in the Galaxy luminometer (BMG Labtechnologies LUMIstar) following the manufacturer's instructions. […]

HIF-1 target genes = assay: Semi-quantitative RT-PCR of HIF-1 target genes
Method: FIGS. 12a-f are RT-PCR analyses depicting HIF-1α mediated activation of various genes in cells transfected with the expression vector alone (Neo) or the MSF-A expression vector (MSF-A). Total RNA was isolated from PC-3-Neo and PC-3-MSF-A cells grown under normoxic (lanes 1 and 2) and hypoxic (lanes 3 and 4) conditions. Semi-quantitative RT-PCR analysis was performed using VEGF, Glut-1, ET-1, CA-IX, HIF-1α and β-actin primers (SEQ ID NOs:4200-4211 as described under General Materials and Experimental Methods). Lane 1—Neo, lane 2—MSF-A, lane 3—Neo, lane 4—MSF-A, lane 5—water (negative control).
Isolation and analysis of RNA—Total RNA was extracted from cells by using RNeasy Mini Kit (Qiagen Inc., Valencia, Calif.) according to the manufacturer's protocol. Total RNA from xenograft-derived tumors, which were frozen in liquid N2 immediately after dissection, was prepared using TRI REAGENT (Sigma-Aldrich Co., Saint Louis, Mo.) following the manufacturer's instructions. One μg total RNA was reverse transcribed into cDNA using Reverse-iT 1st Strand Synthesis Kit (ABgene, Epsom, United Kingdom) using anchored oligo dT as first strand primer. […] Semi-quantitative RT-PCR was performed using […] as an internal control to normalize gene expression for the PCR templates. […]

PC-3 cells = assay: Plating efficiency assay; settings: PC-3-MSF-A cells; PC-3-Neo 16.8%, p<0.001
Method: Plating Efficiency assay—PC-3-Neo and PC-3-MSF-A cells were cultured in 100 mm-diameter plate (1000 cells/plate) and incubated to allow colony formation. The cultures were monitored on a daily basis and when colonies were visible (approximately after 2 weeks) cells were fixed and stained with 90% EtOH, 5% Acetic acid, 0.01% Coomassie brilliant blue (Sigma-Aldrich, Saint Louis, Mo.). Plating was done in triplicates. Colonies containing ≧20 cells were counted. Plating efficiency (%) was calculated as number of colonies formed/number of cells plated×100.

B1: MSF-A: myeloid/lymphoid leukemia septin-like fusion protein A (SEQ ID NO:3), over-expressed from the p3xFlag-MSF-A vector (protein, listed as Homo sapiens)
chain: MKKSYSGGTRTSSGRLRRLGDSSGPALKRSFEVEEVETPNSTPPRRVQTPLLRATVASSTQKFQDLGVKNSEPSARHVDSLSQRSPKASLRRVELSGPKAAEPVSRRTELSIDISSKQVENAGAIGPSRFGLKRAEVLGHKTPEPAPRRTEITIVKPQESAHRRMEPPASKVPEVPTAPATDAAPKRVEIQMPKPAEAPTAPSPAQTLENSEPAPVSQLQSRLEPKPQPPVAEATPRSQEATEAAPSCVGDMADTPRDAGLKQAPASRNEKAPVDFGYVGIDSILEQMRRKAMKQGFEFNIMVVGQSGLGKSTLINTLFKSKISRKSVQPTSEERIPKTIEIKSITHDIEEKGVRMKLTVIDTPGFGDHINNENCWQPIMKFINDQYEKYLQEEVNINRKKRIPDTRVHCCLYFIPATGHSLRPLDIEFMKRLSKVVNIVPVIAKADTLTLEERVHFKQRITADLLSNGIDVYPQKEFDEDSEDRLVNEKFREMIPFAVVGSDHEYQVNGKRILGRKTKWGTIEVENTTHCEFAYLRDLLIRTHMQNIKDITSSIHFEAYRVKRLNEGSSAMANGVEEKEPEAPEM
modifications: 3xFlag tag
HIF-1α transcriptional activity (luciferase reporter) [1]: induced HIF-1α activity | HIF-1α mRNA level (HIF-1 target genes; PC-3-MSF-A and PC-3-Neo cells): unchanged | VEGF mRNA levels (HIF-1 target genes; PC-3-MSF-A vs PC-3-Neo cells): significantly higher | plating efficiency (PC-3 cells): 49.3%
